B1: His-SUMO-hnRNPDL isoform 2 D259N (natural protein, human)
chain: MEDMNEYSNIEEFAEGSKINASKNQQDDGKMFIGGLSWDTSKKDLTEYLSRFGEVVDCTIKTDPVTGRSRGFGFVLFKDAASVDKVLELKEHKLDGKLIDPKRAKALKGKEPPKKVFVGGLSPDTSEEQIKEYFGAFGEIENIELPMDTKTNERRGFCFITYTDEEPVKKLLESRYHQIGSGKCEIKVAQPKEVYRQQQQQQKGGRGAAAGGRGGTRGRGRGQGQNWNQGFNNYYDQGYGNYNSAYGGDQNYSGYGGYNYTGYNYGNYGYGQGYADYSGQQSTYGKASRGGGNHQNNYQPY
B2: His-SUMO-hnRNPDL isoform 2 D259H (natural protein, human)
chain: MEDMNEYSNIEEFAEGSKINASKNQQDDGKMFIGGLSWDTSKKDLTEYLSRFGEVVDCTIKTDPVTGRSRGFGFVLFKDAASVDKVLELKEHKLDGKLIDPKRAKALKGKEPPKKVFVGGLSPDTSEEQIKEYFGAFGEIENIELPMDTKTNERRGFCFITYTDEEPVKKLLESRYHQIGSGKCEIKVAQPKEVYRQQQQQQKGGRGAAAGGRGGTRGRGRGQGQNWNQGFNNYYDQGYGNYNSAYGGDQNYSGYGGYHYTGYNYGNYGYGQGYADYSGQQSTYGKASRGGGNHQNNYQPY

Biological target: the molecule itself
Test: amyloid aggregation

Protein | binding result
B1 | binds
B2 | binds
